Reference: PMC3625234, “The L-Cysteine Desulfurase NFS1 Is Localized in the Cytosol where it Provides the Sulfur for Molybdenum Cofactor Biosynthesis in Humans” (PLoS ONE, 2013)

Tests used:
[1] = target: ECFP-MOCS3-RLD fusion (human); test: FRET or BRET; time-gated FLIM-FRET in transiently transfected HeLa cells; ECFP donor lifetime (long component τ1 of a bi-exponential fit) with EYFP acceptor; N = 30–42 cells
[2] = target: MOCS3-RLD (purified) (human); test: SPR; Biacore T200, CM5 chip, target immobilized by amine coupling (400–600 RU), 25°C, 30 µL/min, 20 mM phosphate, 150 mM NaCl, 0.005% Tween 20, pH 7.4; analytes 0.31–10 µM; global fit, 1:1 binding, mean of 3 measurements
[3] = target: T1, NFS1Δ1-55/ISD11 complex (human, UniProt Q9Y697 56-457; Q9HD34 1-91); test: as above; conditions: both partners purified
T1 construct: L-cysteine desulfurase NFS1, human, without residues 1-55; ISD11, human; source: E. coli BL21(DE3), co-expressed (pZM2 and pZM4), purified
T1 sequence (Q9Y697 56-457, stated change not applied, chain 1 of 2): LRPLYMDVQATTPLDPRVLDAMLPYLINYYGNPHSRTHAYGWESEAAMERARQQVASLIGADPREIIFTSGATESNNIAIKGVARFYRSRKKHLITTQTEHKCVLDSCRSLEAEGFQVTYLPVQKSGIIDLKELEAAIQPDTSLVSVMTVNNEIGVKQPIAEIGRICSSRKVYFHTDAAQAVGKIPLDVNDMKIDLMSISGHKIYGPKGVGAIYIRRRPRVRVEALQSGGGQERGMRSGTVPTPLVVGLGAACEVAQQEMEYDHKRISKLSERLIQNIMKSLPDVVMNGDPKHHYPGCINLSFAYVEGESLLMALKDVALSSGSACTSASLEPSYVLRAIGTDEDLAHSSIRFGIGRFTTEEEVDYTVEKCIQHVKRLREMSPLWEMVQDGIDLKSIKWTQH
T1 sequence (Q9HD34 whole entry, stated change not applied, chain 2 of 2, the tested form may be a part): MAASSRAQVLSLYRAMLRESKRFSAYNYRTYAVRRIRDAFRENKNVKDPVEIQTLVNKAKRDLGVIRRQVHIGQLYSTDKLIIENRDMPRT

[4] = target: T2, NFS1Δ1-55^C381A/ISD11 complex (human, UniProt Q9Y697 56-457; Q9HD34 1-91, C381A); test: as above; conditions: both partners purified
T2 construct: L-cysteine desulfurase NFS1, human, without residues 1-55, with C381A; ISD11, human; without ISD11 it precipitated; source: E. coli BL21(DE3), co-expressed (pUMT13 and pZM4), purified
T2 sequence (Q9Y697 56-457 C381A, chain 1 of 2): as the sequence (Q9Y697 56-457, stated change not applied, chain 1 of 2) above, with C326A counted along it
T2 sequence (Q9HD34 whole entry, chain 2 of 2, the tested form may be a part): as the sequence (Q9HD34 whole entry, stated change not applied, chain 2 of 2, the tested form may be a part) above

EYFP-NFS1Δ1-55 fusion (from UniProt Q9Y697 56-457) (domain or fragment)
ECFP donor lifetime τ1 [1]: 2.9 ns | reduction of the ECFP donor lifetime [1]: 17%

NFS1Δ1-55 (purified) (from UniProt Q9Y697 56-457) (domain or fragment)
Kd [2]: 36 nM

NFS1Δ1-55/ISD11 complex (from UniProt Q9Y697 56-457; Q9HD34 1-91)
Kd [2]: 166 nM

NFS1Δ1-55^C381A/ISD11 complex (from UniProt Q9Y697 56-457; Q9HD34 1-91)
Kd [2]: 241 nM

B1: MOCS3 purified after expression in Sf9 cells (enzyme, human, UniProt O95396 1-460, looked up)
chain: MASREEVLALQAEVAQREEELNSLKQKLASALLAEQEPQPERLVPVSPLPPKAALSRDEILRYSRQLVLPELGVHGQLRLGTACVLIVGCGGLGCPLAQYLAAAGVGRLGLVDYDVVEMSNLARQVLHGEALAGQAKAFSAAASLRRLNSAVECVPYTQALTPATALDLVRRYDVVADCSDNVPTRYLVNDACVLAGRPLVSASALRFEGQITVYHYDGGPCYRCIFPQPPPAETVTNCADGGVLGVVTGVLGCLQALEVLKIAAGLGPSYSGSLLLFDALRGHFRSIRLRSRRLDCAACGERPTVTDLLDYEAFCGSSATDKCRSLQLLSPEERVSVTDYKRLLDSGAFHLLLDVRPQVEVDICRLPHALHIPLKHLERRDAESLKLLKEAIWEEKQGTQEGAAVPIYVICKLGNDSQKAVKILQSLSAAQELDPLTVRDVVGGLMAWAAKIDGTFPQY
notes: MOCS3, human; no tag is named here; also called pMMC30; source: Sf9 cells, purified
Kd [3]: 119 nM | Kd [4]: 218 nM
